We go through two molecules from patent US20200308292A1 (ARMAGEN TECHNOLOGIES, published 2020).

For assay [1], the target named is T1, human insulin receptor extracellular domain (HIR ECD) (human, UniProt P06213 28-956, limits assumed).
T1 construct: extracellular domain
The experiment in a line: ELISA, HIR ECD plated, biotinylated anti-human IgG detection. Here is the method:
(§1) The affinity of the fusion protein for the HIR extracellular domain (ECD) was determined with an ELISA. CHO cells permanently transfected with the HIR ECD were grown in serum free media (SFM), and the HIR ECD was purified with a wheat germ agglutinin affinity column, as previously described in Coloma et al. (2000) Pharm Res, 17:266-274. The HIR ECD was plated on Nunc-Maxisorb 96 well dishes and the binding of the HIR Ab, or the HIR Ab-SGSH fusion protein, to the HIR ECD was detected with a biotinylated goat anti-human IgG (H+L) secondary antibody, followed by avidin and biotinylated peroxidase (Vector Labs, Burlingame, Calif.). […] The MW of the HIR Ab is 150 kDa, and the MW of the HIR Ab-SGSH fusion protein is 325 kDa.
(In an ELISA, binding on a coated surface is turned into a signal by an enzyme label.)

In assay [2] the target is T1, human insulin receptor extracellular …. The experiment in a line: ELISA, HIR ECD plated; after normalization for MW (150 kDa). How it is done:
as §1

Assay [3] shares this target. The experiment in a line: ELISA, HIR ECD plated; after normalization for MW (325 kDa). How it is done:
as §1

B1: chimeric HIRMAb (monoclonal antibody to the human insulin receptor) (antibody, human IgG1, kappa)
heavy: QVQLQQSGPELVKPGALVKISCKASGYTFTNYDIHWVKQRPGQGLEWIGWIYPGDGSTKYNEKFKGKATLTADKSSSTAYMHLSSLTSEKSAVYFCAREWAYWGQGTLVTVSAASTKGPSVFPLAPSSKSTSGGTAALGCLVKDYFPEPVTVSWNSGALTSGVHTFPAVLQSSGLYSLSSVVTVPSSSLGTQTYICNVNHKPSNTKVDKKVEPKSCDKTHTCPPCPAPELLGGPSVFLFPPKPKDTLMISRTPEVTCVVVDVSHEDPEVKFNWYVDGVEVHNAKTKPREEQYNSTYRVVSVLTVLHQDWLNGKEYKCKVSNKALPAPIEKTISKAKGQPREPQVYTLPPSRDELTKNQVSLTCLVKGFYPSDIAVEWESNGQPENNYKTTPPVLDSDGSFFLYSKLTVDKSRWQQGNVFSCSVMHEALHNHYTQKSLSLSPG
light: DIQMTQSPSSLSASLGERVSLTCRASQDIGGNLYWLQQGPDGTIKRLIYATSSLDSGVPKRFSGSRSGSDYSLTISSLESEDFVDYYCLQYSSSPWTFGGGTKMEIKRTVAAPSVFIFPPSDEQLKSGTASVVCLLNNFYPREAKVQWKVDNALQSGNSQESVTEQDSKDSTYSLSSTLTLSKADYEKHKVYACEVTHQGLSSPVTKSFNRGEC
notes: Its tie to the tested chimeric HIRMAb is indirect; MW 150 kDa; also called HIR Ab; chimeric HIR Ab
Broadly, the EC50 is the concentration needed to bring the measured effect to its halfway point. Regarding B1, the figures for the concentration for a half-maximal effect (EC50) in assay [1] and in assay [2] were 0.029 µg/mL and 0.19 nM, respectively.

B2: HIRMAb-SGSH fusion protein (antibody, human IgG1, kappa)
heavy: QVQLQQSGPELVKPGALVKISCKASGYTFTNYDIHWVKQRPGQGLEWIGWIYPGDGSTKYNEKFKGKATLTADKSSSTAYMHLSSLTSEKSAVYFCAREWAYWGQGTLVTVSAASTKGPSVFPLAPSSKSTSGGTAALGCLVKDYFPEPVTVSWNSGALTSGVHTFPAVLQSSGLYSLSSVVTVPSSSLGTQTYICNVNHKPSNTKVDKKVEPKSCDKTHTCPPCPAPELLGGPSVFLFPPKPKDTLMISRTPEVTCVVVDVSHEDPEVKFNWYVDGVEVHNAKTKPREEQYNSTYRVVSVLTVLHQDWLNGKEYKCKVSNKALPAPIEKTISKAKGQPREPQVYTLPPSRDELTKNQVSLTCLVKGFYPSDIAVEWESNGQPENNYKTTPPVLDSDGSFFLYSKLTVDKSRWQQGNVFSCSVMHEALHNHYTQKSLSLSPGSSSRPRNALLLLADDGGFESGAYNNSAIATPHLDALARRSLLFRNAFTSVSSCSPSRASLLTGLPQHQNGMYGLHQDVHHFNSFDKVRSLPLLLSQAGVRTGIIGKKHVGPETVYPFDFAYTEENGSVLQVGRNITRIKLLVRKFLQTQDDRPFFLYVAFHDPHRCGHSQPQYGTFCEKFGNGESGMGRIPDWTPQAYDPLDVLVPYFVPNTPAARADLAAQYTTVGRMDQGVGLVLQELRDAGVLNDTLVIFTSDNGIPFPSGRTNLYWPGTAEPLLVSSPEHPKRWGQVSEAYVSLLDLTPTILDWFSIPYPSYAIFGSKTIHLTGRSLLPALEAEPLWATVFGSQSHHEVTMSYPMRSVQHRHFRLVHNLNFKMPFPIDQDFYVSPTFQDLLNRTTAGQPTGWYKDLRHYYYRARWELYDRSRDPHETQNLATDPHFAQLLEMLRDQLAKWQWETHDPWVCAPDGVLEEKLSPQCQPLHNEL
light: DIQMTQSPSSLSASLGERVSLTCRASQDIGGNLYWLQQGPDGTIKRLIYATSSLDSGVPKRFSGSRSGSDYSLTISSLESEDFVDYYCLQYSSSPWTFGGGTKMEIKRTVAAPSVFIFPPSDEQLKSGTASVVCLLNNFYPREAKVQWKVDNALQSGNSQESVTEQDSKDSTYSLSSTLTLSKADYEKHKVYACEVTHQGLSSPVTKSFNRGEC
modifications: Cys-514 of SEQ ID NO 10 undergoes post-translational conversion to formylglycine (inferred by the filing from retained enzyme activity)
notes: IgG-enzyme fusion, hetero-tetramer, CHO-derived, estimated MW 325 kDa; also called HIR Ab-SGSH fusion protein; HIR Ab-SGSH fusion antibody
B2: the EC50 in assay [1] is 0.107 µg/mL; in assay [3], 0.33 nM.
